Numbering of substitutions follows the chain as printed.
B1: 178K 1B2 mAb: mouse monoclonal antibody raised against E1-KLH (56); IgG2b, κ; heavy chain SEQ ID NO 84, light chain SEQ ID NO 108 (antibody)
heavy: MNFGLSLIFLALILKGVQCEVQLVESGGDLVKPGGSLKLSCAASGFTFTNYVMSWVRQTPDKRLEWVATINSGGRYAYYPDSVKGRFTISRDNAKNTLYLQMSSLKSEDTAMYYCAGGNNLDYWGQGTTLTVSSAKTTPPSVYPLAPGCGDTTGSSVTLGCLVKGYFPESVTVTWNSGSLSSSVHTFPALLQSGLYTMSSSVTVPSSTWLSQTVTCSVAHPASSTTVDKKLEPSGPISTIKPCPPCKECHKCPAPNLEGGPSVFIFPPNIKDVLMISLTPKVTCVVVDVSEDDPDVQISWFVNNVEVHTAQTQTHREDYNSTIRVVSALPIQHQDWMSGKEFKCKVNNKDLPSPIERTISKIKGLVRAPQVYILPPPAEQLSRKDVSLTCLVVGFNPGDISVEWTSNGHTEENYKDTAPILDSDGSYFIYSKLNMKTSKWEKTDSFSCNVRHEGLKNNYLKKTISRSPGK
light: MRFSAQLLGLLVLWIPGSTADIVMTQAAFSNPVTLGTSASISCRSSKSLLQRNGITYLYWYLQKPGQSPQLLIYRLSNLASGVPDRFSSSGSGTDFTLRISRVEAEDVGVYYCGQDLELPYTFGGGTKLEIKRADAAPTVSIFPPSSEQLTSGGASVVCFLNNFYPKDINVKWKIDGSERQNGVLNSWTDQDSKDSTYSMSSTLTLTKDEYERHNSYTCEATHKTSTSPIVKSFNRNEC
B2: 178K 4E11 mAb: mouse monoclonal antibody raised against E1-KLH (56); IgG2b, κ; heavy chain SEQ ID NO 89, light chain SEQ ID NO 113 (antibody)
heavy: B1 heavy with T49S, K62M, A77T, S103N, M112I
light: B1 light with L76M
B3: 178K 2B7 mAb: mouse monoclonal antibody raised against E1-KLH (56); IgG2b, κ; heavy chain SEQ ID NO 87, light chain SEQ ID NO 111 (antibody)
heavy: B1 heavy with K32R, A43S, T47I, T49S, Y76F, A77T, Y99F, S103N, S107P, M112I
light: B1 light with A28E, N53S, L76M, L117M
B4: 178H 4B1 mAb: mouse monoclonal antibody raised against E1-KLH (56); IgG2b, κ; heavy chain SEQ ID NO 83, light chain SEQ ID NO 107 (antibody)
heavy: MNFGLSLIFLALILKGLQCEVQLVESGGDLVKPGGSLKLSCAASGFTFSRNVMSWVRQTPDKRLEWVATISSGGVHTYYLDSVKGRFTIFRDNAKNTLYLQMNSLQSEDTAMYYCAAGNALDYWGQGTSVTVSSAKTTPPSVYPLAPGCGDTTGSSVTLGCLVKGYFPESVTVTWNSGSLSSSVHTFPALLQSGLYTMSSSVTVPSSTWPSQTVTCSVAHPASSTTVDKKLEPSGPISTINPCPPCKECHKCPAPNLEGGPSVFIFPPNIKDVLMISLTPKVTCVVVDVSEDDPDVRISWFVNNVEVHTAQTQTHREDYNSTIRVVSALPIQHQDWMSGKEFKCKVNNKDLPSPIERTISKIKGLVRAPQVYILPPPAEQLSRKDVSLTCLVVGFNPGDISVEWTSNGHTEENYKDTAPVLDSDGSYFIYSKLDIKTSKWEKTDSFSCNVRHEGLKNYYLKKTISRSPGK
light: B1 light with V23M, A39G, Q51H, R52S, R75Q, L76M, T122S, G125S

Tested on: E1-OVA (55)
Assay: ELISA binding of hybridoma supernatant to E1-OVA (55) coated plates, without inhibitor
Settings: hybridoma supernatant mixed with PBS alone
Procedure: All ELISA steps were performed at rt. Wells of a Nunc Maxi-Sorp™ flat-bottom ELISA plates (ThermoFisher Scientific, Waltham, MA) were coated with 50 μL E1-OVA (55), E2-OVA (65), and E3-OVA (72) at a concentration of 1 μg/mL in PBS for 1 h. The plates were flicked dried and remaining binding sites were blocked with 200 μL per well of blocking solution (0.5% casein, 0.05% (v/v) Tween 20 in PBS) for one hour. Plates were washed six times with MilliQ water containing 0.05% (v/v) Tween 20 on Biotek 405 LS plate washer equipped with microplate Biostacker 3 (Biotek, Winooski, VT). 50 μL of serially diluted antibody samples (serial dilutions of serum, hybridoma supernatant, or monoclonal antibodies in PBS) were added to each well and incubated for one hour. Unbound antibodies were removed by washing as described above, and 50 μL of secondary goat anti-rabbit IgG HRP or goat anti-mouse IgG (Fc)-HRP conjugate (ThermoFisher Scientific, USA), diluted 1:3,000 in the blocking solution was added to each well for detection bound rabbit or mouse antibody, respectively. Plates were incubated for one hour, washed and 100 μL of TMB substrate (Moss, Pasadena, MD) was added for 15 min to determine bound peroxidase. Optical density (OD) of the samples at 650 nm was measured using an ELISA plate reader (Molecular Devices LLC., San Jose, CA). The titer of each serum sample was designated as the maximum dilution that yielded at least twice the absorbance of the same dilution of the nonimmune control serum.
(§1) The supernatants were screened in a competitive ELISA for the presence of anti-ecstasy compound monoclonal antibodies (mAbs) as follows. 25 μL of the hybridoma supernatant was mixed with equal volume of PBS alone or containing 20 μg/mL inhibitor (MDA or MDMA) were incubated for 1 h in the wells of E1-OVA (55) coated ELISA plates. The plates were washed and the presence of bound mAbs were detected using goat anti-mouse IgG (Fc)-HRP conjugate and TMB substrate as described above. The level of inhibition of mAb/E1-OVA (55) binding in the presence of the inhibitor was estimated using a Percent (%) Inhibition calculated by the below formula:
[formula] • where “OD650 nm w/o Inhibitor” is the binding response of the antibody sample diluted in PBS alone (with no inhibitor), and the “OD650 nm with Inhibitor” is the binding response of the same antibody sample in the presence of 10 μg/mL of inhibitor (i.e., MDA or MDMA). […]

With B1 as the molecule, how does the “E1-OVA (55) Binding, OD650 nm w/o inhib” value read?
The value was 4.000 OD650 nm.

Which “E1-OVA (55) Binding, OD650 nm w/o inhib” value does the source give for B2 here?
The value was 1.930 OD650 nm.

Which “E1-OVA (55) Binding, OD650 nm w/o inhib” value does the source give for B3 here?
Its value is 3.497 OD650 nm.

Which “E1-OVA (55) Binding, OD650 nm w/o inhib” value does the source give for B4 here?
The value was 3.164 OD650 nm.

Tested on: not listed separately
Assay: Competitive ELISA screening of hybridoma supernatants on E1-OVA (55), inhibitor MDA
Format: binding
Settings: hybridoma supernatant in the presence of 10 μg/mL MDA
Procedure: (§2) Competitive ELISA was used to assess the presence of anti-Ecstasy-class antibodies in animal sera, hybridoma supernatants, and monoclonal antibody (mAb) samples as well as to estimate the level of antibody cross reactivity to amphetamine (Amph) and methamphetamine (mAmph). Antisera and antibody samples were used at the dilution giving a response of about OD=1 at 650 nm (OD650 nm) in an indirect ELISA. Hybridoma supernatants were diluted 1:2 in PBS. (±)-MDMA, (±)-MDA, (±)-amphetamine, and (±)-methamphetamine were used as inhibitors (Cerilliant Corporation, Round Rock, TX). Microtiter ELISA plates were coated and blocked as described above for indirect ELISA. The inhibitors were serially diluted in PBS. 25 μL of the diluted inhibitor was mixed with 25 μL of fixed appropriate antiserum or antibody sample dilution. The mixture was incubated over the E1-OVA (55) solid phase for 1 h. The plates were washed as described above and the bound antibodies were detected with anti-rabbit or anti-mouse IgG HRP-conjugates and TMB substrate as described above.
as §1
(§3) [formula] • where “OD650 nm w/o Inhibitor” is the binding response of the antibody sample diluted in PBS alone (with no inhibitor), and the “OD650 nm with Inhibitor” is the binding response of the same antibody sample in the presence of 10 μg/mL of inhibitor (i.e., MDA or MDMA).

With B1 as the molecule, how does the “E1-OVA (55) Binding, OD650 nm +MDA” value read?
The value was 0.730 OD650 nm.

With B2 as the molecule, how does the “E1-OVA (55) Binding, OD650 nm +MDA” value read?
The value was 0.091 OD650 nm.

For B3, which “E1-OVA (55) Binding, OD650 nm +MDA” value is on record?
Its value is 0.429 OD650 nm.

For B4, which “E1-OVA (55) Binding, OD650 nm +MDA” value is on record?
The value was 0.105 OD650 nm.

Same assay, conditions: inhibition of mAb/E1-OVA (55) binding

With B1 as the molecule, how does the “% Inhibition by 10 μg/mL of MDA” value read?
Its value is 82%.

Which “% Inhibition by 10 μg/mL of MDA” value does the source give for B2 here?
The value was 95%.

With B3 as the molecule, how does the “% Inhibition by 10 μg/mL of MDA” value read?
The value was 88%.

With B4 as the molecule, how does the “% Inhibition by 10 μg/mL of MDA” value read?
The value was 97%.

Tested on: not listed separately
Assay: Competitive ELISA screening of hybridoma supernatants on E1-OVA (55), inhibitor MDMA
Format: binding
Settings: hybridoma supernatant in the presence of 10 μg/mL MDMA
Procedure: as §2, §1, §3

With B1 as the molecule, how does the “E1-OVA (55) Binding, OD650 nm +MDMA” value read?
Its value is 0.667 OD650 nm.

With B2 as the molecule, how does the “E1-OVA (55) Binding, OD650 nm +MDMA” value read?
Its value is 0.088 OD650 nm.

For B3, which “E1-OVA (55) Binding, OD650 nm +MDMA” value is on record?
The value was 0.374 OD650 nm.

With B4 as the molecule, how does the “E1-OVA (55) Binding, OD650 nm +MDMA” value read?
Its value is 0.093 OD650 nm.

Same assay, conditions: inhibition of mAb/E1-OVA (55) binding

Which “% Inhibition by 10 μg/mL of MDMA” value does the source give for B1 here?
Its value is 83%.

For B2, which “% Inhibition by 10 μg/mL of MDMA” value is on record?
Its value is 95%.

With B3 as the molecule, how does the “% Inhibition by 10 μg/mL of MDMA” value read?
Its value is 89%.

With B4 as the molecule, how does the “% Inhibition by 10 μg/mL of MDMA” value read?
The value was 98%.

Tested on: not listed separately
Assay: Prototype EMIT ecstasy assay, cross-reactivity with amphetamine
Format: biochemical
Settings: conjugate Compound 58; negative urine pool

With B2 as the molecule, how does the “Concentrations (μg/mL) of Structurally Related Compounds Equivalent to 500 ng/mL MDMA Cutoffs, (+/−) Amph” value (“Concentrations (μg/mL) … (+/−) Amph” below) read?
The value was 40 to 45 µg/mL.

With B3 as the molecule, how does the “Concentrations (μg/mL) … (+/−) Amph” value read?
Its value is 40 to 45 µg/mL.

For B4, which “Concentrations (μg/mL) … (+/−) Amph” value is on record?
Its value is 40 µg/mL.

Tested on: not listed separately
Assay: Prototype EMIT ecstasy assay, cross-reactivity with methamphetamine
Format: biochemical
Settings: conjugate Compound 58; negative urine pool

Which “Concentrations (μg/mL) of Structurally Related Compounds Equivalent to 500 ng/mL MDMA Cutoffs, (+/−) mAmph” value (shortened to “Concentrations (μg/mL) … (+/−) mAmph”) does the source give for B2 here?
Its value is 50 to 60 µg/mL.

For B3, which “Concentrations (μg/mL) … (+/−) mAmph” value is on record?
The value was 50 to 60 µg/mL.

With B4 as the molecule, how does the “Concentrations (μg/mL) … (+/−) mAmph” value read?
The value was 40 to 50 µg/mL.

Tested on: not listed separately
Assay: Competitive ELISA of purified antibodies on E1-OVA (55), MDMA and MDA reactivity
Format: binding
Settings: 10,000-0.1 ng/mL range of drug concentration
Procedure: as §2
(§4) The anti-ecstasy class mAbs were purified from clarified and filtered hybridoma culture supernatants on a recombinant Protein A Sepharose Fast Flow (GE Life Sciences, Boston USA), dialyzed against PBS containing 0.02% sodium azide and stored at 4° C. The purified mAbs were tested for MDA and MDMA reactivity as well as amphetamine (Amph) and methamphetamine (mAmph) cross reactivity in a competitive assay.

Which “relative sensitivity to MDMA and MDA in competitive ELISA” value (from here on “relative sensitivity to MDMA and MDA”) does the source give for B1 here?
Its value is “bind MDMA stronger than MDA”.

With B3 as the molecule, how does the “relative sensitivity to MDMA and MDA” value read?
Its value is “bind MDMA stronger than MDA”.

With B4 as the molecule, how does the “relative sensitivity to MDMA and MDA” value read?
Its value is “bind MDMA stronger than MDA”.

Tested on: not listed separately
Assay: Competitive ELISA of purified antibodies on E1-OVA (55), amphetamine and methamphetamine cross reactivity
Format: binding
Settings: not given
Procedure: as §2, §4

For B1, which “cross reactivity in the presence of 1,000 ng/ml of Amph or mAmph” value (shortened to “cross reactivity in the presence”) is on record?
The value was “do not show any significant cross reactivity”.

For B2, which “cross reactivity in the presence” value is on record?
Its value is “do not show any significant cross reactivity”.

With B3 as the molecule, how does the “cross reactivity in the presence” value read?
Its value is “do not show any significant cross reactivity”.

From patent US20260234121A1, “DERIVATIVES, IMMUNOGENS, AND ANTIBODIES AND USE OF THE SAME IN DETECTION OF ECSTASY-CLASS COMPOUNDS” (Siemens Healthcare Diagnostics Inc., priority 2023, published 2026)
